Source: US20230407373A1 (priority 2020, published 2023)

B1: KRT14 (protein, UniProt P02533 1-472, looked up)
Keratin, type I cytoskeletal …: MTTCSRQFTSSSSMKGSCGIGGGIGGGSSRISSVLAGGSCRAPSTYGGGLSVSSSRFSSGGACGLGGGYGGGFSSSSSSFGSGFGGGYGGGLGAGLGGGFGGGFAGGDGLLVGSEKVTMQNLNDRLASYLDKVRALEEANADLEVKIRDWYQRQRPAEIKDYSPYFKTIEDLRNKILTATVDNANVLLQIDNARLAADDFRTKYETELNLRMSVEADINGLRRVLDELTLARADLEMQIESLKEELAYLKKNHEEEMNALRGQVGGDVNVEMDAAPGVDLSRILNEMRDQYEKMAEKNRKDAEEWFFTKTEELNREVATNSELVQSGKSEISELRRTMQNLEIELQSQLSMKASLENSLEETKGRYCMQLAQIQEMIGSVEEQLAQLRCEMEQQNQEYKILLDVKTRLEQEIATYRRLLEGEDAHLSSSQFSSGSQSSRDVTSSSRQIRTKVMDVHDGKVVSTHEQVLRTKN
B2: KRT1 (protein, UniProt P04264 2-644, looked up)
Keratin, type II cytoskeletal …: SRQFSSRSGYRSGGGFSSGSAGIINYQRRTTSSSTRRSGGGGGRFSSCGGGGGSFGAGGGFGSRSLVNLGGSKSISISVARGGGRGSGFGGGYGGGGFGGGGFGGGGFGGGGIGGGGFGGFGSGGGGFGGGGFGGGGYGGGYGPVCPPGGIQEVTINQSLLQPLNVEIDPEIQKVKSREREQIKSLNNQFASFIDKVRFLEQQNQVLQTKWELLQQVDTSTRTHNLEPYFESFINNLRRRVDQLKSDQSRLDSELKNMQDMVEDYRNKYEDEINKRTNAENEFVTIKKDVDGAYMTKVDLQAKLDNLQQEIDFLTALYQAELSQMQTQISETNVILSMDNNRSLDLDSIIAEVKAQYEDIAQKSKAEAESLYQSKYEELQITAGRHGDSVRNSKIEISELNRVIQRLRSEIDNVKKQISNLQQSISDAEQRGENALKDAKNKLNDLEDALQQAKEDLARLLRDYQELMNTKLALDLEIATYRTLLEGEESRMSGECAPNVSVSVSTSHTTISGGGSRGGGGGGYGSGGSSYGSGGGSYGSGGGGGGGRGSYGSGGSSYGSGGGSYGSGGGGGGHGSYGSGSSSGGYRGGSGGGGGGSSGGRGSGGGSSGGSIGGRGSSSGGVKSSGGSSSVKFVSTTYSGVTR
B3: DDX21 (protein, UniProt Q9NR30 1-783, looked up)
Nucleolar RNA helicase 2: MPGKLRSDAGLESDTAMKKGETLRKQTEEKEKKEKPKSDKTEEIAEEEETVFPKAKQVKKKAEPSEVDMNSPKSKKAKKKEEPSQNDISPKTKSLRKKKEPIEKKVVSSKTKKVTKNEEPSEEEIDAPKPKKMKKEKEMNGETREKSPKLKNGFPHPEPDCNPSEAASEESNSEIEQEIPVEQKEGAFSNFPISEETIKLLKGRGVTFLFPIQAKTFHHVYSGKDLIAQARTGTGKTFSFAIPLIEKLHGELQDRKRGRAPQVLVLAPTRELANQVSKDFSDITKKLSVACFYGGTPYGGQFERMRNGIDILVGTPGRIKDHIQNGKLDLTKLKHVVLDEVDQMLDMGFADQVEEILSVAYKKDSEDNPQTLLFSATCPHWVFNVAKKYMKSTYEQVDLIGKKTQKTAITVEHLAIKCHWTQRAAVIGDVIRVYSGHQGRTIIFCETKKEAQELSQNSAIKQDAQSLHGDIPQKQREITLKGFRNGSFGVLVATNVAARGLDIPEVDLVIQSSPPKDVESYIHRSGRTGRAGRTGVCICFYQHKEEYQLVQVEQKAGIKFKRIGVPSATEIIKASSKDAIRLLDSVPPTAISHFKQSAEKLIEEKGAVEALAAALAHISGATSVDQRSLINSNVGFVTMILQCSIEMPNISYAWKELKEQLGEEIDSKVKGMVFLKGKLGVCFDVPTASVTEIQEKWHDSRRWQLSVATEQPELEGPREGYGGFRGQREGSRGFRGQRDGNRRFRGQREGSRGPRGQRSGGGNKSNRSQNKGQKRSFSKAFGQ
B4: RBFOX2 (protein, UniProt O43251 1-390, looked up)
RNA binding protein fox-1 …: MQNEPLTPGYHGFPARDSQGNQEPTTTPDAMVQPFTTIPFPPPPQNGIPTEYGVPHTQDYAGQTGEHNLTLYGSTQAHGEQSSNSPSTQNGSLTTEGGAQTDGQQSQTQSSENSESKSTPKRLHVSNIPFRFRDPDLRQMFGQFGKILDVEIIFNERGSKGFGFVTFENSADADRAREKLHGTVVEGRKIEVNNATARVMTNKKMVTPYANGWKLSPVVGAVYGPELYAASSFQADVSLGNDAAVPLSGRGGINTYIPLISLPLVPGFPYPTAATTAAAFRGAHLRGRGRTVYGAVRAVPPTAIPAYPGVVYQDGFYGADLYGGYAAYRYAQPATATAATAAAAAAAAYSDGYGRVYTADPYHALAPAASYGVGAVASLYRGGYSRFAPY
B5: BAZ1B (protein, UniProt Q9UIG0 1-1483, looked up)
Tyrosine-protein kinase BAZ1B: MAPLLGRKPFPLVKPLPGEEPLFTIPHTQEAFRTREEYEARLERYSERIWTCKSTGSSQLTHKEAWEEEQEVAELLKEEFPAWYEKLVLEMVHHNTASLEKLVDTAWLEIMTKYAVGEECDFEVGKEKMLKVKIVKIHPLEKVDEEATEKKSDGACDSPSSDKENSSQIAQDHQKKETVVKEDEGRRESINDRARRSPRKLPTSLKKGERKWAPPKFLPHKYDVKLQNEDKIISNVPADSLIRTERPPNKEIVRYFIRHNALRAGTGENAPWVVEDELVKKYSLPSKFSDFLLDPYKYMTLNPSTKRKNTGSPDRKPSKKSKTDNSSLSSPLNPKLWCHVHLKKSLSGSPLKVKNSKNSKSPEEHLEEMMKMMSPNKLHTNFHIPKKGPPAKKPGKHSDKPLKAKGRSKGILNGQKSTGNSKSPKKGLKTPKTKMKQMTLLDMAKGTQKMTRAPRNSGGTPRTSSKPHKHLPPAALHLIAYYKENKDREDKRSALSCVISKTARLLSSEDRARLPEELRSLVQKRYELLEHKKRWASMSEEQRKEYLKKKREELKKKLKEKAKERREKEMLERLEKQKRYEDQELTGKNLPAFRLVDTPEGLPNTLFGDVAMVVEFLSCYSGLLLPDAQYPITAVSLMEALSADKGGFLYLNRVLVILLQTLLQDEIAEDYGELGMKLSEIPLTLHSVSELVRLCLRRSDVQEESEGSDTDDNKDSAAFEDNEVQDEFLEKLETSEFFELTSEEKLQILTALCHRILMTYSVQDHMETRQQMSAELWKERLAVLKEENDKKRAEKQKRKEMEAKNKENGKVENGLGKTDRKKEIVKFEPQVDTEAEDMISAVKSRRLLAIQAKKEREIQEREMKVKLERQAEEERIRKHKAAAEKAFQEGIAKAKLVMRRTPIGTDRNHNRYWLFSDEVPGLFIEKGWVHDSIDYRFNHHCKDHTVSGDEDYCPRSKKANLGKNASMNTQHGTATEVAVETTTPKQGQNLWFLCDSQKELDELLNCLHPQGIRESQLKERLEKRYQDIIHSIHLARKPNLGLKSCDGNQELLNFLRSDLIEVATRLQKGGLGYVEETSEFEARVISLEKLKDFGECVIALQASVIKKFLQGFMAPKQKRRKLQSEDSAKTEEVDEEKKMVEEAKVASALEKWKTAIREAQTFSRMHVLLGMLDACIKWDMSAENARCKVCRKKGEDDKLILCDECNKAFHLFCLRPALYEVPDGEWQCPACQPATARRNSRGRNYTEESASEDSEDDESDEEEEEEEEEEEEEDYEVAGLRLRPRKTIRGKHSVIPPAARSGRRPGKKPHSTRRSQPKAPPVDDAEVDELVLQTKRSSRRQSLELQKCEEILHKIVKYRFSWPFREPVTRDEAEDYYDVITHPMDFQTVQNKCSCGSYRSVQEFLTDMKQVFTNAEVYNCRGSHVLSCMVKTEQCLVALLHKHLPGHPYVRRKRKKFPDRLAEDEGDSEPEAVGQSRGRRQKK
B6: PKP1 (protein, UniProt Q13835 1-747, looked up)
Plakophilin-1: MNHSPLKTALAYECFQDQDNSTLALPSDQKMKTGTSGRQRVQEQVMMTVKRQKSKSSQSSTLSHSNRGSMYDGLADNYNYGTTSRSSYYSKFQAGNGSWGYPIYNGTLKREPDNRRFSSYSQMENWSRHYPRGSCNTTGAGSDICFMQKIKASRSEPDLYCDPRGTLRKGTLGSKGQKTTQNRYSFYSTCSGQKAIKKCPVRPPSCASKQDPVYIPPISCNKDLSFGHSRASSKICSEDIECSGLTIPKAVQYLSSQDEKYQAIGAYYIQHTCFQDESAKQQVYQLGGICKLVDLLRSPNQNVQQAAAGALRNLVFRSTTNKLETRRQNGIREAVSLLRRTGNAEIQKQLTGLLWNLSSTDELKEELIADALPVLADRVIIPFSGWCDGNSNMSREVVDPEVFFNATGCLRKRLGMRELLALVPQRATSSRVNLSSADAGRQTMRNYSGLIDSLMAYVQNCVAASRCDDKSVENCMCVLHNLSYRLDAEVPTRYRQLEYNARNAYTEKSSTGCFSNKSDKMMNNNYDCPLPEEETNPKGSGWLYHSDAIRTYLNLMGKSKKDATLEACAGALQNLTASKGLMSSGMSQLIGLKEKGLPQIARLLQSGNSDVVRSGASLLSNMSRHPLLHRVMGNQVFPEVTRLLTSHTGNTSNSEDILSSACYTVRNLMASQPQLAKQYFSSSMLNNIINLCRSSASPKAAEAARLLLSDMWSSKELQGVLRQQGFDRNMLGTLAGANSLRNFTSRF
B7: KRT6A (protein, UniProt P02538 2-564, looked up)
Keratin, type II cytoskeletal …: ASTSTTIRSHSSSRRGFSANSARLPGVSRSGFSSVSVSRSRGSGGLGGACGGAGFGSRSLYGLGGSKRISIGGGSCAISGGYGSRAGGSYGFGGAGSGFGFGGGAGIGFGLGGGAGLAGGFGGPGFPVCPPGGIQEVTVNQSLLTPLNLQIDPTIQRVRAEEREQIKTLNNKFASFIDKVRFLEQQNKVLETKWTLLQEQGTKTVRQNLEPLFEQYINNLRRQLDSIVGERGRLDSELRGMQDLVEDFKNKYEDEINKRTAAENEFVTLKKDVDAAYMNKVELQAKADTLTDEINFLRALYDAELSQMQTHISDTSVVLSMDNNRNLDLDSIIAEVKAQYEEIAQRSRAEAESWYQTKYEELQVTAGRHGDDLRNTKQEIAEINRMIQRLRSEIDHVKKQCANLQAAIADAEQRGEMALKDAKNKLEGLEDALQKAKQDLARLLKEYQELMNVKLALDVEIATYRKLLEGEECRLNGEGVGQVNISVVQSTVSSGYGGASGVGSGLGLGGGSSYSYGSGLGVGGGFSSSSGRAIGGGLSSVGGGSSTIKYTTTSSSSRKSYKH
B8: HNRNPA261 (protein, UniProt P22626 1-353, looked up)
Heterogeneous nuclear …: MEKTLETVPLERKKREKEQFRKLFIGGLSFETTEESLRNYYEQWGKLTDCVVMRDPASKRSRGFGFVTFSSMAEVDAAMAARPHSIDGRVVEPKRAVAREESGKPGAHVTVKKLFVGGIKEDTEEHHLRDYFEEYGKIDTIEIITDRQSGKKRGFGFVTFDDHDPVDKIVLQKYHTINGHNAEVRKALSRQEMQEVQSSRSGRGGNFGFGDSRGGGGNFGPGPGSNFRGGSDGYGSGRGFGDGYNGYGGGPGGGNFGGSPGYGGGRGGYGGGGPGYGNQGGGYGGGYDNYGGGNYGSGNYNDFGNYNQQPSNYGPMKSGNFGGSRNMGGPYGGGNYGPGGSGGSGGYGGRSRY

System: HCoV-OC43 gRNA and sgRNA
Type: binding
Conditions: 24 hpi; type n_24_v; tested against no-probe control; FDR<10%

Compared with B1, B2 is higher in “target (unweighted spectral count, OC43 Probe II capture)” value (“target” below): 7 for the first, 49 for the second.

Compared with B3, B4 is lower in “target” value: 7 for the first, 4 for the second.

B5 and B6 are the same in “target” value: 4 for the first, 4 for the second.

In the case of B7, the “target” value is reported as 4.

Same assay, conditions: 36 hpi; type n_36_v; tested against no-probe control; FDR<10%

Compared with B4, B8 is higher in “target” value: 4 for the first, 70 for the second.
